Residue numbers refer to the chain shown, from its start. In names and notes the source's numbering stands.
Tests used:
[1] = system: Arabidopsis thaliana T1 plants; test: Isoxaflutole tolerance of transgenic Arabidopsis thaliana T1 plants (spray, bleached leaf area grade, damage score); format: in vivo;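 as to Scores: Weighted damage index from 0 to 100 where higher means more damage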
Summary of the method: (§1)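 Damage graded 0–3 from the proportion of bleached leaf area 7 days after spraying. Plants were glufosinate-selected T1 lines, 18 days after sowing, plus vector and wild-type controls. Rates: mesotrione 52.5–420, isoxaflutole 35–280, topramezone 25–200 g ai/ha, with water (0×).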

[2] = system: Arabidopsis thaliana T1 plants; test: Mesotrione tolerance of transgenic Arabidopsis thaliana T1 plants (spray, bleached leaf area grade, damage score); format: in vivo; design: Scores: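 damage score 0-100 computed as Σ(N×S)/(T×M)×100 over grades 0-3 with higher meaning more damage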
Summary of the method: as §1

[3] = isoxaflutole 140 g ai/ha, number of plants in grade
[4] = isoxaflutole 280 g ai/ha, number of plants in grade
[5] = mesotrione 210 g ai/ha, number of plants in grade
[6] = mesotrione 420 g ai/ha, number of plants in grade

B1: AsHPPDm-A111T-F383W-02: nucleotide sequence encoding Avena sativa HPPD with A111T+F383W; vector DBN11782 (nucleic acid)
DNA: ATGCCACCTACTCCAGCTACAGCTACTGGTGCTGCTGCTGCTGCCGTTACTCCTGAGCACGCTGCCAGGTCATTCCCCAGGGTGGTTCGCGTGAACCCCAGATCTGATAGGTTCCCAGTTCTGAGCTTCCACCATGTTGAGCTGTGGTGCGCTGATGCTGCTTCTGCTGCTGGCAGGTTCTCTTTCGCTCTTGGTGCTCCACTCGCTGCTAGATCTGATCTGTCTACAGGAAATAGCGCTCATGCCTCACTCCTGCTTCGCTCAGGTGCTTTGGCCTTCCTCTTCACCGCTCCATATGCTCCCCCACCTCAGGAGGCTGCTACTGCTGCTACTACAGCCTCCATTCCAAGCTTCTCAGCTGATGCCGCTAGAACCTTCGCTGCTGCTCATGGACTTGCCGTGAGGTCTGTTGGTGTTCGCGTGGCTGATGCTGCTGAGGCTTTCAGAGTTTCCGTTGCCGGCGGAGCTAGGCCAGCTTTCGCTCCTGCTGATTTGGGACATGGTTTCGGCCTGGCTGAGGTTGAGCTTTACGGTGACGTGGTTCTCCGCTTCGTGTCTTACCCAGATGAGACTGACCTGCCTTTCCTTCCCGGCTTCGAGAGAGTTTCCTCTCCTGGTGCCGTGGATTACGGCCTGACAAGGTTCGACCACGTGGTTGGAAACGTTCCCGAGATGGCTCCAGTGATCGATTACATGAAGGGCTTCCTTGGATTCCATGAGTTCGCCGAGTTCACTGCTGAGGACGTGGGAACCACTGAGTCCGGTTTGAACTCTGTGGTTCTCGCCAACAATTCTGAGGCTGTTTTGCTCCCTCTGAATGAGCCTGTGCATGGAACCAAGAGGAGAAGCCAGATTCAAACTTACCTGGAGTACCACGGTGGCCCTGGAGTTCAGCATATCGCCCTTGCTTCTAATGATGTGTTGCGCACACTCAGAGAGATGCGCGCCAGAACCCCCATGGGAGGTTTCGAGTTCATGGCCCCACCACAGGCTAAGTACTACGAGGGCGTTAGAAGGATTGCTGGAGACGTGTTGAGCGAGGAGCAGATCAAGGAGTGCCAAGAGCTGGGTGTTCTTGTGGATAGGGATGACCAGGGCGTTCTGCTTCAAATTTTCACTAAGCCAGTGGGCGACCGCCCTACATTCTGGCTTGAGATGATTCAAAGAATCGGCTGCATGGAGAAGGATGAGGTTGGACAGGAGTACCAAAAGGGCGGATGCGGTGGCTTCGGAAAGGGTAACTTCAGCGAGTTGTTCAAGTCAATCGAGGACTACGAGAAGAGCCTCGAGGTGAAGCAGTCAGTGGTTGCCCAAAAGTCCTGA
modifications: AsHPPDm-A111T-F383W-02 Nucleotide Sequence
notes: vector DBN11782
[1]; Table 11, isoxaflutole 140 g ai/ha (2×)
  Resistance evaluation: Moderately
[1]; Table 11, isoxaflutole 140 g ai/ha (2×), number of plants at grade 0
  Classification and statistics of the grade of pesticide damage Grade 0: 6
[1]; Table 11, isoxaflutole 140 g ai/ha (2×), number of plants at grade 1
  Classification and statistics of the grade of pesticide damage Grade 1: 8
[1]; Table 11, isoxaflutole 140 g ai/ha (2×), number of plants at grade 2
  Classification and statistics of the grade of pesticide damage Grade 2: 2
[1]; Table 11, isoxaflutole 140 g ai/ha (2×), number of plants at grade 3
  Classification and statistics of the grade of pesticide damage Grade 3: 0
[1]; Table 11, isoxaflutole 140 g ai/ha (2×), pesticide damage score
  Scores: 25
[1]; Table 11, isoxaflutole 280 g ai/ha (4×)
  Resistance evaluation: Poorly resistant
[1]; Table 11, isoxaflutole 280 g ai/ha (4×), number of plants at grade 0
  Classification and statistics of the grade of pesticide damage Grade 0: 4
[1]; Table 11, isoxaflutole 280 g ai/ha (4×), number of plants at grade 1
  Classification and statistics of the grade of pesticide damage Grade 1: 4
[1]; Table 11, isoxaflutole 280 g ai/ha (4×), number of plants at grade 2
  Classification and statistics of the grade of pesticide damage Grade 2: 8
[1]; Table 11, isoxaflutole 280 g ai/ha (4×), number of plants at grade 3
  Classification and statistics of the grade of pesticide damage Grade 3: 0
[1]; Table 11, isoxaflutole 280 g ai/ha (4×), pesticide damage score
  Scores: 42
[2]; Table 12, mesotrione 210 g ai/ha (2×)
  Resistance evaluation: Moderately
[2]; Table 12, mesotrione 210 g ai/ha (2×), number of plants at grade 0
  Classification and statistics of the grade of pesticide damage Grade 0: 4
[2]; Table 12, mesotrione 210 g ai/ha (2×), number of plants at grade 1
  Classification and statistics of the grade of pesticide damage Grade 1: 10
[2]; Table 12, mesotrione 210 g ai/ha (2×), number of plants at grade 2
  Classification and statistics of the grade of pesticide damage Grade 2: 2
[2]; Table 12, mesotrione 210 g ai/ha (2×), number of plants at grade 3
  Classification and statistics of the grade of pesticide damage Grade 3: 0
[2]; Table 12, mesotrione 210 g ai/ha (2×), pesticide damage score
  Scores: 29
[2]; Table 12, mesotrione 420 g ai/ha (4×)
  Resistance evaluation: Poorly resistant
[2]; Table 12, mesotrione 420 g ai/ha (4×), number of plants at grade 0
  Classification and statistics of the grade of pesticide damage Grade 0: 0
[2]; Table 12, mesotrione 420 g ai/ha (4×), number of plants at grade 1
  Classification and statistics of the grade of pesticide damage Grade 1: 2
[2]; Table 12, mesotrione 420 g ai/ha (4×), number of plants at grade 2
  Classification and statistics of the grade of pesticide damage Grade 2: 13
[2]; Table 12, mesotrione 420 g ai/ha (4×), number of plants at grade 3
  Classification and statistics of the grade of pesticide damage Grade 3: 1
[2]; Table 12, mesotrione 420 g ai/ha (4×), pesticide damage score
  Scores: 65

B2: AsHPPDm-F415W-02: nucleotide sequence encoding Avena sativa HPPD with F415W; vector DBN11791 (nucleic acid)
DNA: B1 DNA with A331G, G1148T, G1149C, T1244G, C1245G
modifications: AsHPPDm-F415W-02 Nucleotide Sequence
notes: vector DBN11791
[1]; isoxaflutole 140 g ai/ha
  Resistance evaluation: Moderately
  Scores: 31
[1]; [3]
  Classification and statistics of the grade of pesticide damage Grade 0: 5
  Classification and statistics of the grade of pesticide damage Grade 1: 7
  Classification and statistics of the grade of pesticide damage Grade 2: 4
  Classification and statistics of the grade of pesticide damage Grade 3: 0
[1]; isoxaflutole 280 g ai/ha
  Resistance evaluation: Poorly
  Scores: 63
[1]; [4]
  Classification and statistics of the grade of pesticide damage Grade 0: 0
  Classification and statistics of the grade of pesticide damage Grade 1: 2
  Classification and statistics of the grade of pesticide damage Grade 2: 14
  Classification and statistics of the grade of pesticide damage Grade 3: 0
[2]; mesotrione 210 g ai/ha
  Resistance evaluation: Non-resistant
  Scores: 81
[2]; [5]
  Classification and statistics of the grade of pesticide damage Grade 0: 0
  Classification and statistics of the grade of pesticide damage Grade 1: 0
  Classification and statistics of the grade of pesticide damage Grade 2: 9
  Classification and statistics of the grade of pesticide damage Grade 3: 7
[2]; mesotrione 420 g ai/ha
  Resistance evaluation: Non-resistant
  Scores: 100
[2]; [6]
  Classification and statistics of the grade of pesticide damage Grade 0: 0
  Classification and statistics of the grade of pesticide damage Grade 1: 0
  Classification and statistics of the grade of pesticide damage Grade 2: 0
  Classification and statistics of the grade of pesticide damage Grade 3: 16

B3: AsHPPDm-F372A-F415W-02: nucleotide sequence encoding Avena sativa HPPD with F372A+F415W; vector DBN11792 (nucleic acid)
DNA: B1 DNA with A331G, T1114G, T1115C, G1148T, G1149C, T1244G, C1245G
modifications: AsHPPDm-F372A-F415W-02 Nucleotide Sequence
notes: vector DBN11792
[1]; isoxaflutole 140 g ai/ha
  Resistance evaluation: Moderately
  Scores: 31
[1]; [3]
  Classification and statistics of the grade of pesticide damage Grade 0: 5
  Classification and statistics of the grade of pesticide damage Grade 1: 7
  Classification and statistics of the grade of pesticide damage Grade 2: 4
  Classification and statistics of the grade of pesticide damage Grade 3: 0
[1]; isoxaflutole 280 g ai/ha
  Resistance evaluation: Poorly
  Scores: 63
[1]; [4]
  Classification and statistics of the grade of pesticide damage Grade 0: 0
  Classification and statistics of the grade of pesticide damage Grade 1: 3
  Classification and statistics of the grade of pesticide damage Grade 2: 12
  Classification and statistics of the grade of pesticide damage Grade 3: 1
[2]; mesotrione 210 g ai/ha
  Resistance evaluation: Moderately
  Scores: 31
[2]; [5]
  Classification and statistics of the grade of pesticide damage Grade 0: 6
  Classification and statistics of the grade of pesticide damage Grade 1: 6
  Classification and statistics of the grade of pesticide damage Grade 2: 3
  Classification and statistics of the grade of pesticide damage Grade 3: 1
[2]; mesotrione 420 g ai/ha
  Resistance evaluation: Poorly resistant
  Scores: 50
[2]; [6]
  Classification and statistics of the grade of pesticide damage Grade 0: 0
  Classification and statistics of the grade of pesticide damage Grade 1: 8
  Classification and statistics of the grade of pesticide damage Grade 2: 8
  Classification and statistics of the grade of pesticide damage Grade 3: 0

B4: AsHPPDm-F383Y-02: nucleotide sequence encoding Avena sativa HPPD with F383Y; vector DBN11795 (nucleic acid)
DNA: B1 DNA with A331G, G1148A, G1149T
modifications: AsHPPDm-F383Y-02 Nucleotide Sequence
notes: vector DBN11795
[1]; isoxaflutole 140 g ai/ha
  Resistance evaluation: Non-resistant
  Scores: 100
[1]; [3]
  Classification and statistics of the grade of pesticide damage Grade 0: 0
  Classification and statistics of the grade of pesticide damage Grade 1: 0
  Classification and statistics of the grade of pesticide damage Grade 2: 0
  Classification and statistics of the grade of pesticide damage Grade 3: 16
[1]; isoxaflutole 280 g ai/ha
  Resistance evaluation: Non-resistant
  Scores: 100
[1]; [4]
  Classification and statistics of the grade of pesticide damage Grade 0: 0
  Classification and statistics of the grade of pesticide damage Grade 1: 0
  Classification and statistics of the grade of pesticide damage Grade 2: 0
  Classification and statistics of the grade of pesticide damage Grade 3: 16
[2]; mesotrione 210 g ai/ha
  Resistance evaluation: Non-resistant
  Scores: 100
[2]; [5]
  Classification and statistics of the grade of pesticide damage Grade 0: 0
  Classification and statistics of the grade of pesticide damage Grade 1: 0
  Classification and statistics of the grade of pesticide damage Grade 2: 0
  Classification and statistics of the grade of pesticide damage Grade 3: 16
[2]; mesotrione 420 g ai/ha
  Resistance evaluation: Non-resistant
  Scores: 100
[2]; [6]
  Classification and statistics of the grade of pesticide damage Grade 0: 0
  Classification and statistics of the grade of pesticide damage Grade 1: 0
  Classification and statistics of the grade of pesticide damage Grade 2: 0
  Classification and statistics of the grade of pesticide damage Grade 3: 16

Source: patent US20250043302A1, “MUTATED HYDROXYPHENYLPYRUVATE DIOXYGENASE POLYPEPTIDE, AND CODING GENE AND USE THEREOF” (BEIJING DABEINONG BIOTECHNOLOGY CO., LTD., priority 2021, published 2025)
